Laboratory results: patent US12624096B2, “Anti-tau antibodies and methods of use thereof” (GTInvent Limited, priority 2020, dated 2026)
“Also recorded” adds a separate entry of the source.

What was measured:
[1] = molecular target: dGAE aggregates (Homo sapiens, UniProt P10636); experiment: Sandwich ELISA on SDS/Triton X-100 treated dGAE aggregates; format: binding; settings: S1D12 mAb capture, S1G2 scAb detection; SDS + Triton X-100 treated
Method: For aggregation, 1000 μL 100 μM dGAE+10 μL 10 mM DTT was added to a ‘LoBind’ microfuge tubes and agitated at 700 RPM/37° C., for 24 hours. Resulting sample centrifuged at 17,000×g/4° C., for 60 min and supernatant discarded to remove left over monomer. Pellet resuspended in half the original volume for future experiments and hereafter referred to as ‘aggregates’. 1 μl of aggregates was added to 1 ml of PBS and SDS was added to a final concentration of 1% (w/v). This was left to incubate on lab bench for 1 h with gentle agitation every 15 minutes. In order to neutralise the SDS effect on ELISA, Triton X-100 added to a final concentration of 3% (v/v) and mixed gently by pipetting to prevent any bubble formation. […] Similarly aggregates treated with only SDS or Triton X-100, untreated aggregates, dGAE monomers treated with only SDS or SDS+Titon X-100 were also added to designated wells as controls. All samples were then double diluted across the plate in final volumes of 100 μl. The final column was left with no protein to act as a blank. This was allowed to stand at room temperature for 1 hour followed by the addition of detection scAb-S1G2 at 10 μg/ml. Anti-HuCk HRP labelled secondary antibody was added as described previously and ELISA data generated was represented using the graph below. In addition, limits of detection (LoD) of various core binding antibody pairing for SDS Triton X-100 treated dGAE aggregates were calculated using the above describe ELISA method and substituting capture mAbs and detection scAbs as shown in Table 30.

[2] = molecular target: T1, human tau (Homo sapiens, UniProt P10636, G652D/P618S); experiment: Western blot ratio of human to mouse tau in L66+/+ brain after 6-week S1D12 mAb therapy; format: in vivo; settings: L66+/+ mice, 30 mg/kg i.p. weekly for 6 weeks vs vehicle, S1G2 detection
T1 construct: sample A with 5 nM full length human tau (hT40); from tissue; host or cells: brain homogenate of L66+/+ transgenic mice expressing the human tau transgene
Method: (§1) In a six-week repeat-dose study, a total of 12 WT, 12 Line 1 (L1) and 12 Line 66 homozygotes (L66+/*) female mice aged 2-months at the beginning of the study were used (Table 32 for group size). Mice in each genotype were injected intraperitoneally (i.p.) with either vehicle or S1D12 (30 mg/kg), once per week, for six consecutive weeks.
A hemisphere of each Line 66^+/+ mouse brain was suspended in RIPA buffer and homogenised. Samples were left on ice for 1 hour and subsequently centrifuged for 10 minutes at 10,000×g at 4° C. The supernatant was collected, and the total protein was quantified using a BCA Protein Assay Kit. Brain homogenate supernatant from each mouse was separated via sodium dodecyl sulphate polyacrylamide gel electrophoresis (SDS-PAGE) with MES running buffer. […] Following washing, the secondary antibody, sheep anti-mouse IgG-HRP, was added, and the membrane was washed five times with PBST and developed with Clarity Western ECL Substrate and read using a BioSpectrum Gel imaging System (UVP). Results were analysed using ImageJ-Fiji (NIH, Version 1.53) where densitometric analysis was performed and the ratio of human to mouse tau densities was calculated.

[3] = molecular target: aggregated dGAE (Homo sapiens, UniProt P10636); experiment: Capture ELISA ranking of mAbs on dGAE aggregates; format: binding; settings: 1 μg/ml capture mAb, 800 nM aggregated dGAE
Method: The aggregation cascade of natively unfolded tau into insoluble filaments is a defining pathological feature of AD. Therefore, it is logical to target aggregated tau filaments for both therapeutic and diagnostic purposes. The following experiment was performed to assess the ability of our dGA mAb panel to bind aggregated dGAE using a capture ELISA method. Aggregates were prepared by incubating 100 μM dGAE and 10 mM dTT for 24 h at 37° C. with shaking at 700 RPM. The following day, dGAE aggregates were centrifuged at 17,000×g for 20 min and the supernatant was removed. The remaining pellet was washed with 10 mM phosphate buffer and centrifuged as above. Washing was repeated a further two times to remove any remaining dGAE monomer. The dGAE pellet was resuspended in 100 μl of 10 mM phosphate buffer. (Using a separate capture ELISA based quantification, we have worked out the efficiency of our dGAE aggregation as 80%)
For assessing the mAb panel for aggregate binding, designated rows of a maxisorp plate were coated with 1 μg/ml of each of the capture mAbs (S1D12, S1G2, CA4, NS2A1, CE2, E2E8 and CB7) and blocked as before. Following washing, 800 nM aggregated dGAE was added to the designated wells, double diluted across the plate and incubated for 1 h at RT. The plate was washed again and 1 μg/ml S1G2 scAb was added as detection antibody and incubated for 1 h at RT. To the row where S1G2 mAb was used for capture, […] s1D12 scAb was added as […] instead of S1G2. The assay was developed using HRP labelled HuCK as described previously.

[4] = Pharmacokinetic study of S1D12 mAb, single dose, plasma and brain (dGAE ligand binding ELISA); format: in vivo, mouse; settings: single dose 30 mg/kg i.p., NMRI mice
Method: For the PK study, a total of 42 female NMRI mice (Swiss-type mouse, Naval Medical Research Institute) aged 6 months were allocated into six groups according to sample collection time (Table 30 for group size). Animals were injected intraperitoneally with S1D12 (30 mg/kg) and sacrificed 24-, 48-, 72-hours and 7-, 14- and 31-days after injection to collect blood and brain samples. A control group was also included in which animals were sacrificed to collect blood and brain, but no test item was administered.
Blood samples were centrifuged to obtain plasma at 2000×g for 5 min at 6° C., and samples were stored at −20° C. After blood collection, each mouse was perfused with heparinized saline for 2-3 minutes and the entire brain removed rapidly and snap frozen in liquid nitrogen and stored at −80° C.
Briefly, dGAE (1 μg/mL) was used to coat ELISA plates and blocked with 2% Marvel. […] Following washing, HRP-conjugated anti-mouse IgG as detector was added, and the assay developed using TMB solution as normal. The absorbance at 450 nm was read using a Clariostar plate reader (BMG Labtech) and MARS Clariostar software used to calculate S1D12 concentration from a standard curve.
Average values from each group (representing a time point) was plotted (FIG. 10) and the in vivo half-life, Cmax and Tmax calculated by performing a non-compartmental analysis of the plasma data using the PKSolver2.0 software (FIG. 51, Table 31). […] Here a higher coating concertation of dGAE at 10 μg/ml was used to compete off antibody binding to tau present in the brain.

[5] = test system: plasma tau; experiment: Plasma tau (Simoa) after S1D12 immunotherapy; format: in vivo, mouse; set-up: plasma tau, core and proline region pairing (S1G2-BT2) / plasma tau, proline region pairing (BT2-HT7): unit not given here
Method: as §1
Three-step assays were performed and analysed as per previously described plasma screening methods in this document.

[6] = Six-week repeat-dose study, S1D12 mAb in plasma and brain; format: in vivo, mouse
Method: as §1
Mice treated with S1D12 were culled seven days after the last dosing whereas vehicle-treated animals were sacrificed the following day, i.e. 8 days post-treatment. Mice were anaesthetized using an overdose of sodium pentobarbital administered intraperitoneally for blood collection. Blood was transferred to plastic vials containing lithium heparin anticoagulant, centrifuged to obtain the plasma and the entire brain was removed as described previously. Plasma and brain samples (stored at −20° C., and −80° C., respectively) were subjected to further biochemical analysis.

[7] = molecular target: hT40, dGA, dGAE and truncated tau fragments/peptides (Homo sapiens, UniProt P10636); experiment: Binding ELISA for epitope mapping with truncated tau proteins and biotinylated 13mer peptides; settings: scAbs used as negative controls in thioflavin T assay; data not shown
[8] = molecular target: hT40 (Homo sapiens, UniProt P10636); experiment: Biacore X100 SPR, scAb captured via anti-HuCk, hT40 as analyte; format: binding; settings: '3a' and '3b' scAbs, Table 25, hT40
Summary of the method: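 Captured scAb on anti-HuCk CM5 surface (flow cell 1 as reference) in HBS-EP+, capture set for theoretical RMax 100 RU; hT40 injected multi-cycle (0.15625–100 nM) or single-cycle (6.25–100 nM), 120 s association, 420 s dissociation, glycine pH 2.0 regeneration. Kinetics and affinity from 1:1 binding model fit.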

Sequence of hT40 (P10636 1-441 isoform P10636-8): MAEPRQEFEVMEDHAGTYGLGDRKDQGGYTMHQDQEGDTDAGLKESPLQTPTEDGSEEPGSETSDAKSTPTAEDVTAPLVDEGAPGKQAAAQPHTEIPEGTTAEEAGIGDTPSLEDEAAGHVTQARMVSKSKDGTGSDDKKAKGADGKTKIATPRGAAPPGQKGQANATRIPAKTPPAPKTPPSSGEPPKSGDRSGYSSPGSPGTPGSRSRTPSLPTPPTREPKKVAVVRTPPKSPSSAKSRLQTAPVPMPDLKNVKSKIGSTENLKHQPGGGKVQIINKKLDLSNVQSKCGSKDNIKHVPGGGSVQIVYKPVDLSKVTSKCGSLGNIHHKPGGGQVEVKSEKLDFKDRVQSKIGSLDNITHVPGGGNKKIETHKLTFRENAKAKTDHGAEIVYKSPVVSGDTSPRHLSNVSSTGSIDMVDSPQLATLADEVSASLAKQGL
T1 sequence (P10636 1-441 isoform P10636-8 P301S/G335D): as the sequence (P10636 1-441 isoform P10636-8) above, with P301S, G335D counted along it
Sequence of dGAE aggregates (P10636 614-708): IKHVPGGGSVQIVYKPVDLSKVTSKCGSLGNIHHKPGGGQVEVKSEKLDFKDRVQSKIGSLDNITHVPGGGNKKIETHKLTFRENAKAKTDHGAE
Sequence of aggregated dGAE (P10636 614-708): as above
Sequence of hT40, dGA, dGAE and truncated tau fragments/peptides (P10636 614-708): as above

B1: S1D12 mAb: S1D12 reformatted as mAb, heavy chain SEQ ID NO: 445, light chain SEQ ID NO: 446 (antibody)
heavy: QVQLQESGPSLVKPSQTLSLTCTVSGFSLNNNAVGWVRQAPGKVPESLVGCSSDGTCYYNSALKSRLDITRDTSKNQISLSLSSVTTDDAAVYYCTRGHYSIYGYDYLGTIDYWGPGLLVTVSSAKTTAPSVYPLAPVCGDTTGSSVTLGCLVKGYFPEPVTLTWNSGSLSSGVHTFPAVLQSDLYTLSSSVTVTSSTWPSQSITCNVAHPASSTKVDKKIEPRGPTIKPCPPCKCPAPNLLGGPSVFIFPPKIKDVLMISLSPIVTCVVVDVSEDDPDVQISWFVNNVEVHTAQTQTHREDYNSTLRVVSALPIQHQDWMSGKEFKCKVNNKDLPAPIERTISKPKGSVRAPQVYVLPPPEEEMTKKQVTLTCMVTDFMPEDIYVEWTNNGKTELNYKNTEPVLDSDGSYFMYSKLRVEKKNWVERNSYSCSVVHEGLHNHHTTKSFSRTPGK
light: QAVLTQPSSVSGSLGQRVSITCSGSSSNVGGGNSVGWYQHLPGSGLKTIIYDTNSRPSGVPDRFSGSRSGNTATLTINSLQAEDEGDYYCVTGDSTTHDDLVGSGTRLTVLGGQPKSSPSVTLFPPSSEELETNKATLVCTITDFYPGVVTVDWKVDGTPVTQGMETTQPSKQSNNKYMASSYLTLTARAWERHSSYSCQVTHEGHTVEKSLSRADCS
modifications: S1D12 mAB Heavy Chain; S1D12 mAB Light Chain
Q: With B1 as the molecule, how does the “dGAE aggregates detectable in sandwich ELISA” value [1] read?
A: approximately 2 ng/ml

Q: And the “ratio of human tau to mouse tau in brain” value [2]?
A: A decrease in the ratio of human tau to mouse tau; also recorded: A decrease in the levels of human tau was observed

Q: And the “ability to capture aggregated dGAE” value [3]?
A: most efficient at capturing aggregated dGAE

Q: What about the “Tmax in the brain” value [4] of the same molecule?
A: 48 h

Q: What about the Cmax ([4]; read-out: Cmax in the brain) of the same molecule?
A: 6.2 nM

Q: And the “difference in plasma tau vs vehicle, S1G2-BT2” value ([5]; L1 and wildtype mice)?
A: not statistically significant

Q: What about the “plasma tau, core and proline region pairing (S1G2-BT2)” value ([5]; L66+/+ mice, S1D12 mAb 30 mg/kg weekly for 6 weeks) of the same molecule?
A: 1438±275

Q: What about the “increase in plasma tau vs vehicle, S1G2-BT2” value ([5]; L66 mice) of the same molecule?
A: more than a threefold increase

Q: What about the “plasma tau, proline region pairing (BT2-HT7)” value ([5]; L66 mice, S1D12 mAb 30 mg/kg weekly for 6 weeks) of the same molecule?
A: 127±55

Q: What about the “increase in S1D12 concentration in plasma following repeat dosing” value ([6]; WT mice, 30 mg/kg once per week for 6 weeks vs single dose, 7 days post dose) of the same molecule?
A: > 3 fold

Q: And the “plasma S1D12 antibody crossing the blood brain barrier” value ([6]; WT, L1 and L66+/+ mice, 30 mg/kg weekly for 6 weeks)?
A: 0.15-0.3%

B2: 3aD3: anti-tau clone, SEQ ID NO: 422 (protein)
scFv: QVQLQESGPSLVKPSQTLSLTCTVSGFSLTSNGVGWVRRAPGKVPEWVGDISSGGKVYGHPALKSRLSITRDTSKSQVSLSVSSVTSEDTAVYYCVRCRDGGVSYGYDSDYWGPGLLVTVSSEGKSSGASGESKVDDQAVVTQPSSVSKSLGQSVSITCSGSSSNVGYGDYVGWFQQVPGSAPKLLIYGVTERASGVPDRFSGSRSGNTATLTISSIQAEDEADYYCASYDDSSGGIFGSGTRLTVLG
modifications: 3aD3 amino acid sequence
Q: What does the source list for B2?
A: cross reactivity to dGAE [7]: no cross reactivity to dGAE; ka [8]: 544400 M⁻¹ s⁻¹; kd [8]: 0.01038 s⁻¹
